In patent publication US20250042970A1 (AURINIA PHARMACEUTICALS, published 2025):
Where a chain is given by its changes, count along the chain named.

T1: FLAG-tagged recombinant human APRIL (human, UniProt O75888 105-250)
T1 construct: KINEXA ligand; also called huAPRIL
T1 sequence: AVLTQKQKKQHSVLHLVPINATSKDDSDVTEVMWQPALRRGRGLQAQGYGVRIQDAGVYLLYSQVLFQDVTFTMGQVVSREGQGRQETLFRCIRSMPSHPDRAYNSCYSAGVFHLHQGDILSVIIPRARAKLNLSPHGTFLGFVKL

T2: FLAG-tagged cynomolgous APRIL (cynomolgus monkey, UniProt A0ACM8R0G4 110-250 (rhesus entry))
T2 construct: FLAG-tagged, expressed with TPA signal peptide; also called cyAPRIL
T2 sequence: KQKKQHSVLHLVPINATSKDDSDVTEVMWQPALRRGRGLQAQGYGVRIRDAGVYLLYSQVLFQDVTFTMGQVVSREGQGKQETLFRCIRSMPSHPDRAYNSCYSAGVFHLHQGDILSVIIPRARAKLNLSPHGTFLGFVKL

B1: BAv9-1-5L-pIg23 (Fc fusion, human)
chain: AGQCSQNEYFDHLIRACIPCQLRCSSNTPPLTCQRYCNAGVTNSVGGGGS
notes: domain: Fc; not shown: PIg23: PIg22 Fc with valine at 178 mutated to methionine
B2: Variant BAv3-10-Ig (Fc fusion, human)
chain: AGQCSQNEYFDRLIRACIPCQLRCSSNTPPLTCQRYCNAGVTNSVKGTNAERKSSVECPPSPAPPVAGPSVFLFPPKPKDTLMISRTPEVTCVVVDVSHEDPEVQFNWYVDGVEVHNAKTKPREEQFNSTFRVVSVLTVVHQDWLNGKEYKCKVSNKGLPAPIEKTISKTKGQPREPQVYTLPPSREEMTKNQVSLTCLVKGFYPSDISVEWESNGQPENNYKTTPPMLDSDGSFFLYSKLTVDKSRWQQGNVFSCSVMHEALHNHYTQKSLSLSPGK
notes: domain: Fc; also called Variant 3-10-Ig; BAv3-10-PIg18
B3: Variant BAv9-1-Ig (Fc fusion, human)
chain: B2 chain with R12H
notes: domain: Fc; also called Variant 9-1-Ig; BAv9-1-pIg18
B4: Variant 50239040-Ig (Fc fusion, human)
chain: B2 chain with G2R, Q6P, N7S, F10Y, R12H, A16S, I18V, L31V, N38D
notes: domain: Fc; also called Parent 10
B5: Variant BAv1-12-Ig (Fc fusion, human)
chain: B2 chain with I14V, R15N
notes: domain: Fc; also called Variant 1-12-Ig
B6: Variant 50239978-Ig (Fc fusion, human)
chain: B2 chain with G2R, Q6P, F10Y, R12S, I18V, T28N, L31V
notes: domain: Fc; also called Parent 12
B7: Variant BAv11-6-Ig (Fc fusion, human)
chain: B2 chain with I14L, L22V
notes: domain: Fc; also called Variant 11-6-Ig; BAv11-6-PIg18
B8: Variant 50240054-Ig (Fc fusion, human)
chain: B2 chain with G2Q, Q6P, L31V, A39T
notes: domain: Fc; also called Parent 2
B9: Variant 50238504R-Ig (Fc fusion, human)
chain: B2 chain with F10Y, I18L, Q21H, L22V, L31A
notes: domain: Fc; also called Parent 8
B10: Variant 50239698-Ig (Fc fusion, human)
chain: B2 chain with G2R, F10Y, I14L, A16S, I18V, Q21H, L22V, T28N, L31V
notes: domain: Fc; also called Parent 5
B11: Variant 50238494-Ig (Fc fusion, human)
chain: B2 chain with N7S, F10Y, R15H, I18V, T28N, L31A
notes: domain: Fc; also called Parent 11
B12: Variant 50238779-Ig (Fc fusion, human)
chain: B2 chain with G2Q, I14V, R15N, A16S, I18V, Q21R, T28N, R35H
notes: domain: Fc; also called Parent 1
B13: BAv66-Ig (Fc fusion, human)
chain: B2 chain with R12H, L22G
notes: domain: Fc; also called Variant BAv66-Ig
B14: Variant BAv8-9-Ig (Fc fusion, human)
chain: B2 chain with R12H, I14L
notes: domain: Fc; also called Variant 8-9-Ig; BAv8-9-PIg18

What was measured:
FLAG-tagged human BAFF [1] = molecular target: T3, FLAG-tagged human BAFF (human, UniProt Q9Y275 134-285, limits assumed); assay: KinExA
T3 construct: used in BIACORE (Ex. 9) and KINEXA (Ex. 11); also called huBAFF
Protocol: (§1) Equilibrium measurements were performed using FLAG-tagged, recombinant huBAFF and huAPRIL ligands. Fixed ligand concentrations of human BAFF or human APRIL were incubated with serial dilutions of the variant BCMA ECD-Ig fusion polypeptides, and free ligand was detected in a KINEXA 3200 Instrument. variant BCMA ECD-Ig fusion polypeptides were first diluted in equilibration buffer (1×PBS, pH 7.4, 1 mg/ml BSA) to a range of concentrations from 10 nM to 100 fM. The linear portion of the dilution series was typically 2-fold. Ligands were diluted in equilibration buffer to fixed concentrations ranging from 5 to 20 pM and then incubated with the variant BCMA-Ig dilutions in total reaction volumes ranging from 4.5 to 15 ml. Samples were incubated at room temperature for 48-72 hours to reach equilibrium. For each data point, a fresh column of 850 μl of bead slurry coated with Variant BAv-238475-Ig was introduced into the KINEXA flow cell. Equilibrated samples ranging from 1 to 5 ml reaction volume were injected at a flow rate of 0.25 ml/min. […] The DyLight 649 fluorescent signal was detected using the red filter set (620/30 nanometer excitation filter, 670/40 nanometer emission filter, 645 nanometer dichroic filter) on the KinExA instrument and converted to a voltage signal that was directly proportional to the concentration of free ligand in the equilibrated sample.
The various fusion proteins described above were expressed and purified as described previously (Examples 2 and 3 for the CET1019AS based plasmids and Examples 7 and 8 for the pcDNA based plasmids). […] The BAv9-1-Ig Fc proteins typically exist in solution as a dimeric fusion protein. The purified fusion proteins were assayed for binding activity using BIACORE (Example 9) and KINEXA (Example 11) assays.

FLAG-tagged human BAFF [2] = molecular target: T3, FLAG-tagged human BAFF; assay: KinExA; remark: listed apart in the source
Protocol: as §1
(§2) The standard kinetic exclusion assays and data analyses described above were performed on protein preparations of various variant BCMA ECD-Ig fusion polypeptides, as well as Z-TACI-Ig and [S40G]huBCMA ECD-Ig fusion polypeptides. FIG. 8A, FIG. 8B, and Table 4 summarize the binding data for representative variant BCMA ECD-Ig polypeptides and controls in molar concentrations of huBAFF or huAPRIL determined by KINEXA binding assays.

[3] = molecular target: T1, FLAG-tagged recombinant human APRIL; assay: KinExA
Protocol: as §1, §2

FLAG-tagged human BAFF [4] = molecular target: T3, FLAG-tagged human BAFF; assay: KinExA; remark: listed apart in the source
Protocol: as §1
(§3) Table 5 provides the selectivities of exemplary variant BCMA polypeptides with respect to BAFF and APRIL.

[5] = molecular target: T1, FLAG-tagged recombinant human APRIL; assay: KinExA; remark: listed apart in the source
Protocol: as §1, §3

FLAG-tagged human BAFF [6] = molecular target: T3, FLAG-tagged human BAFF; assay: BIACORE SPR
Description: (§4) The standard kinetic assay measures binding kinetics of trimeric ligand (e.g., human BAFF, cynomolgus monkey APRIL, mouse BAFF, or mouse APRIL) coated on sensor chips and dimeric analytes (e.g., variant BCMA-Ig fusion proteins) in the mobile phase. […] For human BAFF, cynomolgus monkey APRIL, and mouse APRIL measurements, mouse monoclonal antibody (IgG1) anti-FLAG M2 (Sigma Aldrich, Cat. No. F1804) was immobilized on CM3 sensor chips (GE Healthcare, Cat. No. BR-1005-41) according to the manufacturer's protocol. Antibody was diluted to 30 μg/ml in immobilization buffer (10 mM pH 5±0.20; GE Healthcare; GE Healthcare, Catalog No. BR-1003-51). […] Unreacted sites were quenched with 35 μl of 1M ethanolamine-HCl, pH 8.5 (GE Healthcare, GE Healthcare, Cat. No. BR-1000-50). This procedure typically yielded 3,000-4,000 response units (RU) of coupled antibody.
(§5) The fusion polypeptides were diluted in HBS-EP buffer and flowed over ligand-coated sensor chips. The variant BCMA-Ig and surrogate control fusion proteins were injected at three concentrations (1.5 nM, 15 nM, and 150 nM at 30 μl/min for 2 minutes per association phase) in a single binding cycle, followed by a 20 minute incubation with HBS-EP buffer containing no protein at the same flow rate. A similar protocol was followed for Z-TACI-Ig, except that the injections were at 4.5 nM, 45 nM, and 450 nM.
(§6) The analyses described above were performed on protein preparations of representative variant BCMA ECD-Ig fusion polypeptides, as well as the Z-TACI-Ig and [S40G]huBCMA ECD-Ig control fusion polypeptides, and the data is presented in Table 1.

[7] = molecular target: T2, FLAG-tagged cynomolgous APRIL; assay: BIACORE SPR
Description: as §4, §5, §6

FLAG-tagged human BAFF [8] = molecular target: T3, FLAG-tagged human BAFF; assay: BIACORE SPR; remark: listed apart in the source
Protocol: (§7) For human BAFF, cynomolgus monkey APRIL, and mouse APRIL measurements, mouse monoclonal antibody (IgG1) anti-FLAG M2 (Sigma Aldrich, Cat. No. F1804) was immobilized on CM3 sensor chips (GE Healthcare, Cat. No. BR-1005-41) according to the manufacturer's protocol. Antibody was diluted to 30 μg/ml in immobilization buffer (10 mM pH 5±0.20; GE Healthcare; GE Healthcare, Catalog No. BR-1003-51). […] Unreacted sites were quenched with 35 μl of 1M ethanolamine-HCl, pH 8.5 (GE Healthcare, GE Healthcare, Cat. No. BR-1000-50). This procedure typically yielded 3,000-4,000 response units (RU) of coupled antibody.
as §5
(§8) Sequence optimization involved generating revertants from the variant BCMA ECD-Ig molecules using standard site-directed mutagenesis methods such as by SOEing as described herein above. Single as well as multiple revertants from twelve different variant-BCMA-pIg18 were generated, cloned in the pcDNA3.1 vector (Life Technologies, as described in Example 6), expressed and purified as described in Examples 6-8. The resulting proteins were assayed for their binding characteristics using Surface Plasmon Resonance as described in Example 9.

[9] = molecular target: T2, FLAG-tagged cynomolgous APRIL; assay: BIACORE SPR; remark: listed apart in the source
Protocol: as §7, §5, §8

Binder	Kd (FLAG-tagged human BAFF [1])	fold improvement over control (FLAG-tagged human BAFF [2])	fold improvement over control [3]	Selectivity for huBAFF (KD APRIL/KD BAFF) (FLAG-tagged human BAFF [4])	Selectivity for huAPRIL (KD BAFF/KD APRIL) [5]	fold improvement KD vs control (FLAG-tagged human BAFF [6])	fold improvement KD vs control [7]	fold improvement over control (FLAG-tagged human BAFF [8])	fold improvement over control [9]
B1	0.291 pM								
B2		400 fold	0.47 fold	0.6 ratio	1.7 ratio	24.6 fold	1.1 fold		
B3		533 fold	0.8 fold	0.47 ratio	2.1 ratio	14.8 fold	0.7 fold		
B4								9.3 fold	0.3 fold
B5		231 fold	0.68 fold	0.3 ratio	3.56 ratio	9.8 fold	1.5 fold		
B6								10.1 fold	0.6 fold
B7		224 fold	0.1 fold	1.6 ratio	0.62 ratio	7.6 fold	0.6 fold		
B8								6.4 fold	0.7 fold
B9								4.5 fold	0.2 fold
B10								5.5 fold	0.9 fold
B11								7.6 fold	1.3 fold
B12								6.4 fold	0.5 fold
B13						1.3 fold	0.00024 fold		
B14		75.3 fold	7.1 fold	0.0075 ratio	134 ratio	12.6 fold	0.7 fold		
